# Laboratory results: patent publication US20070258988A1
# What was measured:
# [1] = target: hMOR-1B2 (human) (UniProt P35372); assay: competition against [3H]DAMGO (~1 nM), membranes of stable CHO transfectants
# [2] = target: rMOR-1C1 (rat); assay: [3H]DAMGO saturation binding, membranes of stable CHO transfectants
# [3] = target: rMOR-1D (rat); assay: as above
# [4] = target: rMOR-1 (no Exon 4) (rat) (UniProt P33535); assay: as above
# [5] = target: rMOR-1A (rat); assay: as above
# [6] = target: rMOR-1 (rat) (UniProt P33535); assay: as above
# [7] = target: hMOR-1B1 (human) (UniProt P35372); assay: competition against [3H]DAMGO (~1 nM), membranes of stable CHO transfectants
# [8] = target: rMOR-1C1 (rat); assay: as above
# [9] = target: rMOR-1D (rat); assay: as above
# [10] = target: hMOR-1 (human) (UniProt P35372); assay: as above
# [11] = target: rMOR-1A (rat); assay: as above
# [12] = target: rMOR-1 (rat) (UniProt P33535); assay: as above
# [13] = target: hMOR-1B4 (human) (UniProt P35372); assay: cell-based or functional assay
# [14] = target: hMOR-1B1 (human) (UniProt P35372); assay: cell-based or functional assay
# [15] = target: hMOR-1B3 (human) (UniProt P35372); assay: cell-based or functional assay
# [16] = target: rMOR-1C1 (rat); assay: cell-based or functional assay
# [17] = target: rMOR-1D (rat); assay: cell-based or functional assay
# [18] = target: rMOR-1 (no Exon 4) (rat) (UniProt P33535); assay: cell-based or functional assay
# [19] = target: hMOR-1 (exons 1-3) (human) (UniProt P35372); assay: cell-based or functional assay
# [20] = target: hMOR-1B2 (human) (UniProt P35372); assay: cell-based or functional assay
# [21] = target: hMOR-1 (human) (UniProt P35372); assay: cell-based or functional assay
# [22] = target: hMOR-1A (human); assay: cell-based or functional assay
# [23] = target: hMOR-1B5 (human) (UniProt P35372); assay: cell-based or functional assay
# [24] = target: rMOR-1A (rat); assay: cell-based or functional assay
# [25] = target: hMOR-1Y (human) (UniProt P35372); assay: cell-based or functional assay
# [26] = target: rMOR-1 (rat) (UniProt P33535); assay: cell-based or functional assay
# [27] = target: hMOR-1B4 (human) (UniProt P35372); assay: competition against [3H]DAMGO (~1 nM), membranes of stable CHO transfectants
# [28] = target: hMOR-1B3 (human) (UniProt P35372); assay: as above
# [29] = target: hMOR-1 (exons 1-3) (human) (UniProt P35372); assay: as above
# [30] = target: hMOR-1A (human); assay: as above
# [31] = target: hMOR-1B5 (human) (UniProt P35372); assay: as above
# [32] = target: hMOR-1Y (human) (UniProt P35372); assay: as above
# [33] = target: rMOR-1 (no Exon 4) (rat) (UniProt P33535); assay: as above
Substance,Ki [1] [µM],Ki [7] [µM],Ki [8] [µM],Ki [9] [µM],Ki [10] [µM],Ki [11] [µM],Ki [12] [µM],"EC50 (nM), stimulation of [35S]GTPγS binding [16] [nM]",Max Stim (%) [16] [%],"EC50 (nM), stimulation of [35S]GTPγS binding [17] [nM]",Max Stim (%) [17] [%],"EC50 (nM), stimulation of [35S]GTPγS binding [18] [nM]",Max Stim (%) [18] [%],"EC50 (nM), stimulation of [35S]GTPγS binding [24] [nM]",Max Stim (%) [24] [%],"EC50 (nM), stimulation of [35S]GTPγS binding [26] [nM]",Max Stim (%) [26] [%],Ki [27] [µM],Ki [28] [µM],Ki [30] [µM],also measured
"[D-Ala^2,MePhe^4,Gly(ol)^5]enkephalin (DAMGO) (peptide)",,0.0012,0.0045,0.0047,0.002,0.006,0.0033,4,233,125,113,86,196,13,176,12,233,,,,Kd [2]: 0.0048 µM; Kd [3]: 0.0047 µM; Kd [4]: 0.0045 µM; Kd [5]: 0.0025 µM; Kd [6]: 0.0028 µM; Max Inhib (%) [13]: 65%; Max Inhib (%) [14]: 57%; Max Inhib (%) [15]: 73%; Max Inhib (%) [19]: 74%; Max Inhib (%) [20]: 90%; Max Inhib (%) [21]: 76%; Max Inhib (%) [22]: 82%; Max Inhib (%) [23]: 83%; Max Inhib (%) [25]: 91%
Endomorphin 2 (peptide),,,,,,,0.008,,,,,,,,,,,,,,
"[D-Ser^2, Leu^5]enkephalin-Thr^6 (DSLET) (peptide)",0.0344,0.0139,0.045,0.0273,0.0191,0.0445,0.0309,253,312,540,187,690,226,127,206,76,251,0.0223,0.0164,0.0197,Ki [33]: 0.0242 µM; Ki [32]: 0.0154 µM
Endomorphin 1 (peptide),,,,,,,,,377,100,145,,189,,205,,320,,,,

# Second part, led by results:
Ki [1] [µM],Substance,Ki [7] [µM],Ki [8] [µM],Ki [9] [µM],Ki [10] [µM],Ki [11] [µM],Ki [12] [µM],"EC50 (nM), stimulation of [35S]GTPγS binding [16] [nM]",Max Stim (%) [16] [%],"EC50 (nM), stimulation of [35S]GTPγS binding [17] [nM]",Max Stim (%) [17] [%],"EC50 (nM), stimulation of [35S]GTPγS binding [18] [nM]",Max Stim (%) [18] [%],"EC50 (nM), stimulation of [35S]GTPγS binding [24] [nM]",Max Stim (%) [24] [%],"EC50 (nM), stimulation of [35S]GTPγS binding [26] [nM]",Max Stim (%) [26] [%],Ki [27] [µM],Ki [28] [µM],Ki [30] [µM],also measured
0.01,DADLE (peptide),,,,,,,,,,,,,,,,,,,,
> 0.5,"[D-Pen^2, D-Pen^5]enkephalin (DPDPE) (peptide)",> 0.5,,,> 0.5,,,,,,,,,,,,,> 0.5,> 0.5,> 0.5,Ki [29]: > 0.5 µM; Ki [31]: > 0.5 µM; Ki [32]: > 0.5 µM
